From the supplement of paper PMC7877785 come the findings set out here.

The nature of the data set: self-splicing fitness, log relative to wild type (ln ratio); higher = more splicing; Tetrahymena group I intron in knt gene, E. coli kanamycin selection, DiMSum; sequences stand for … in CUCUCU…GGAGGGAAAAGUUAUCAGGCAUGCACCUGGUAGCUAGUCUUUAAACCAAUAGAUUGCAUCGGUUUAAAAGGCAAGACCGUCAAAUUGCGGGAAAGGGGUCAACAGCCGUUCAGUACCAAGUCUCAGGGGAAACUUUGAGAUGGCCUUGCAAAGGGUAUGGUAAUAAGCUGACGGACAUGGUCCUAACCACGCAGCCAAGUCCUAAGUCAACAGAUCUUCUGUUGAUAUGGAUGCAGUUCACAGACUAAAUGUCGGUCGGGGAAGAUGUAUUCUUCUCAUAAGAUAUAGUCGGACCUCUCCUUAAUGGGAGCUAGCGGAUGAAGUGAUGCAACACUGGAGCCGCUGGGAACUAAUUUGUAUGCGAAAGUAUAUUGAUUAGUUUUGGAGUACUCGUGGUCG
Summed up:
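Six replicate transformations of E. coli BL21(DE3) with a pET-22b(+) library were grown overnight at 37°C or 30°C. The library randomised all eight P1ex-region intron nucleotides, the intron lying in the knt kanamycin-resistance gene, and plates were LB agar with or without 25 μg/mL kanamycin plus 100 μg/mL carbenicillin, 50 μM IPTG and 0.2% rhamnose. Pooled colonies were amplicon-sequenced on an Illumina HiSeq 2500, and fitness is the DiMSum error-weighted combination of wild-type-normalised replicate fold changes, kanamycin versus none.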

± gives the uncertainty stated by the source.

For CGGCAGCAAUAUUACGCGGU, the “self-splicing fitness (ln)” value was -4.26 ± 0.25 (30 °C) and -3.33 ± 0.19 (37 °C).

UAGUAGCAAUAUUACGAGCU: where the note is “37 °C”, the “self-splicing fitness (ln)” value was -0.383 ± 0.21.

ACAUAGCAAUAUUACGCGGG: the “self-splicing fitness (ln)” value is, setting by setting: (30 °C) -3.09 ± 0.12; (37 °C) -1.64 ± 0.13.

Take GGGUAGCAAUAUUACGUCAG: the “self-splicing fitness (ln)” value (37 °C) was -0.355 ± 0.32.

On to UGAAAGCAAUAUUACGGUAC, for which the “self-splicing fitness (ln)” value (30 °C) was -3.27 ± 0.32 and the “self-splicing fitness (ln)” value (37 °C) is -2.07 ± 0.24.

As to GUUCAGCAAUAUUACGGUUU, the “self-splicing fitness (ln)” value reads like this: (30 °C) -0.523 ± 0.052; (37 °C) -0.0386 ± 0.061.

For the sequence AGUUAGCAAUAUUACGCUUG, the “self-splicing fitness (ln)” value (37 °C) is -1.83 ± 0.23.

Consider GUAUAGCAAUAUUACGUCGU, for which the “self-splicing fitness (ln)” value by setting is: (30 °C) -2.22 ± 0.12; (37 °C) -0.949 ± 0.13.

For GGUAAGCAAUAUUACGGAGA, the “self-splicing fitness (ln)” value by setting is: (30 °C) -3.47 ± 0.23; (37 °C) -2.8 ± 0.22.

Consider GUGCAGCAAUAUUACGCUCA, for which the “self-splicing fitness (ln)” value (30 °C) was -1.31 ± 0.1 and the “self-splicing fitness (ln)” value (37 °C) is -0.388 ± 0.11.

On to CGUAAGCAAUAUUACGGGUC, for which the “self-splicing fitness (ln)” value runs as follows: (30 °C) -4.24 ± 0.28; (37 °C) -2.45 ± 0.2.

With CCGCAGCAAUAUUACGUGAA, the “self-splicing fitness (ln)” value was -4.45 ± 0.21 (30 °C) and -1.88 ± 0.16 (37 °C).

On to GGUAAGCAAUAUUACGCUAU, for which the “self-splicing fitness (ln)” value is -2.53 ± 0.17 (30 °C) and -2.05 ± 0.27 (37 °C).

For CUCAAGCAAUAUUACGAGCA, where the note is “37 °C”, the “self-splicing fitness (ln)” value was -2.49 ± 0.33.

For the sequence CUGUAGCAAUAUUACGUAAU, the “self-splicing fitness (ln)” value runs as follows: (30 °C) -3.88 ± 0.3; (37 °C) -3.29 ± 0.37.

With UUUAAGCAAUAUUACGAACU, the “self-splicing fitness (ln)” value runs as follows: (30 °C) -2.51 ± 0.23; (37 °C) -1.98 ± 0.23.

Take UAGAAGCAAUAUUACGUAUC: the “self-splicing fitness (ln)” value is -3.43 ± 0.28 (30 °C) and -2.01 ± 0.15 (37 °C).

Consider GGGCAGCAAUAUUACGAGAC, for which the “self-splicing fitness (ln)” value was -3.12 ± 0.26 (30 °C) and -1.74 ± 0.19 (37 °C).

With CCAUAGCAAUAUUACGCCAC, the “self-splicing fitness (ln)” value (37 °C) was -1.75 ± 0.49.

In the case of CAGCAGCAAUAUUACGACGC, the “self-splicing fitness (ln)” value (37 °C) is -1.5 ± 0.45.

In the case of GGGCAGCAAUAUUACGACGU, the “self-splicing fitness (ln)” value is -0.265 ± 0.1 (30 °C) and 0.553 ± 0.12 (37 °C).

For the sequence UGCAAGCAAUAUUACGUCAA, the “self-splicing fitness (ln)” value (30 °C) was -2.14 ± 0.098 and the “self-splicing fitness (ln)” value (37 °C) is -0.795 ± 0.073.

Turning to ACUAAGCAAUAUUACGAUUG, the “self-splicing fitness (ln)” value (30 °C) was -2.62 ± 0.13 and the “self-splicing fitness (ln)” value (37 °C) was -1.5 ± 0.14.

As for CAUCAGCAAUAUUACGUUGA, the “self-splicing fitness (ln)” value (30 °C) was -3 ± 0.15 and the “self-splicing fitness (ln)” value (37 °C) was -3.46 ± 0.24.

As for UCUCAGCAAUAUUACGGGUG, the “self-splicing fitness (ln)” value is -0.627 ± 0.072 (30 °C) and -0.219 ± 0.083 (37 °C).

Consider UCAAAGCAAUAUUACGGUAG, for which the “self-splicing fitness (ln)” value by setting is: (30 °C) -1.54 ± 0.088; (37 °C) -1.19 ± 0.11.

As for GCGAAGCAAUAUUACGGUGA, the “self-splicing fitness (ln)” value (30 °C) was -2.09 ± 0.11 and the “self-splicing fitness (ln)” value (37 °C) is -1.07 ± 0.12.

Turning to ACUGAGCAAUAUUACGUCAG, the “self-splicing fitness (ln)” value by setting is: (30 °C) -2.94 ± 0.2; (37 °C) -2.21 ± 0.19.

Consider ACCGAGCAAUAUUACGGACG, for which the “self-splicing fitness (ln)” value is -2.21 ± 0.15 (30 °C) and 0.0411 ± 0.13 (37 °C).

As for AGCAAGCAAUAUUACGCCUG, the “self-splicing fitness (ln)” value was -3.23 ± 0.27 (30 °C) and -2.54 ± 0.42 (37 °C).

Take AACUAGCAAUAUUACGGUAC: the “self-splicing fitness (ln)” value is -3.39 ± 0.28 (30 °C) and -1.9 ± 0.17 (37 °C).

Turning to GGACAGCAAUAUUACGAGAA, the “self-splicing fitness (ln)” value reads like this: (30 °C) -2.45 ± 0.36; (37 °C) -1.54 ± 0.25.

AAUUAGCAAUAUUACGUGAC: the “self-splicing fitness (ln)” value (30 °C) is -2.05 ± 0.21 and the “self-splicing fitness (ln)” value (37 °C) was -2.73 ± 0.23.

In the case of UGCAAGCAAUAUUACGCUUC, the “self-splicing fitness (ln)” value is -3.15 ± 0.24 (30 °C) and -3.33 ± 0.32 (37 °C).

Turning to GUCAAGCAAUAUUACGCACU, the “self-splicing fitness (ln)” value is -1.71 ± 0.062 (30 °C) and -0.433 ± 0.072 (37 °C).

UUCUAGCAAUAUUACGUAUC: the “self-splicing fitness (ln)” value was -3.32 ± 0.27 (30 °C) and -2.05 ± 0.22 (37 °C).

In the case of AAAAAGCAAUAUUACGUACG, the “self-splicing fitness (ln)” value reads like this: (30 °C) -1.1 ± 0.055; (37 °C) -0.101 ± 0.076.

On to UGCGAGCAAUAUUACGAAGC, for which the “self-splicing fitness (ln)” value (37 °C) is -2.3 ± 0.42.

Regarding CGUCAGCAAUAUUACGGACG, the “self-splicing fitness (ln)” value was -3.63 ± 0.32 (30 °C) and -1.95 ± 0.23 (37 °C).

Take GUAUAGCAAUAUUACGUCAA: the “self-splicing fitness (ln)” value by setting is: (30 °C) -2.37 ± 0.37; (37 °C) -2.86 ± 0.32.
